From patent US20040096912A1
pKd: −log10 of the molar value.

Molecular target: µ opioid receptors in brain membranes of heterozygous Cre/S196A mice
Assay: [^3H]DAMGO saturation binding, Scatchard analysis, brain membranes of heterozygous Cre/S196A mice

[^3H]DAMGO ([D-Ala^1.N-McPhe^4.Gly^5-ol]enkephalin) (peptide)
pKd: 8.61
